Key:
[1] = molecular target: T1, Cynomolgus monkey CD1a protein (Cynomolgus monkey); test: ELISA, 1 µg/ml antibody
T1 chain: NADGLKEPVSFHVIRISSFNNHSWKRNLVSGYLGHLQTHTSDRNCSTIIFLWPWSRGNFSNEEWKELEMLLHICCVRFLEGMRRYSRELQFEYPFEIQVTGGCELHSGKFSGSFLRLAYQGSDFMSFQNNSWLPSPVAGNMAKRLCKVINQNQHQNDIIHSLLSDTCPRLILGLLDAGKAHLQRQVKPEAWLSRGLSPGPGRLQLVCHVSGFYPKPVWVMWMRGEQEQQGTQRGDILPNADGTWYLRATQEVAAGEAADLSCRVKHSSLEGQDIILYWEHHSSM

[2] = molecular target: T2, human CD1a protein (pool B) (human, UniProt P06126 18-295, limits assumed); test: ELISA, 31.6 µg/ml antibody
T2 construct: Recombinant protein of the ELISA (coated) and the Biacore T200 titration; whole entry named; also called human CD1a pool B; full length CD1a

[3] = molecular target: chimeric CD1a pool B protein [human CD1a lipid binding domain, mouse CD1d Ig domain] (human; mouse) (UniProt P06126); test: ELISA, 31.6 µg/ml antibody
[4] = molecular target: chimeric CD1a pool B protein [human CD1a lipid binding domain, mouse CD1d Ig domain] (human; mouse) (UniProt P06126); test: ELISA, 0.0316 µg/ml antibody
[5] = molecular target: T2, human CD1a protein (pool B); test: ELISA, 1 µg/ml antibody
[6] = molecular target: T2, human CD1a protein (pool B); test: ELISA, 10 µg/ml antibody
[7] = molecular target: T1, Cynomolgus monkey CD1a protein; test: ELISA, 10 µg/ml antibody
[8] = molecular target: T1, Cynomolgus monkey CD1a protein; test: ELISA, 0.1 µg/ml antibody
[9] = molecular target: chimeric CD1a pool B protein [human CD1a lipid binding domain, mouse CD1d Ig domain] (human; mouse) (UniProt P06126); test: ELISA, 0.316 µg/ml antibody
[10] = molecular target: T1, Cynomolgus monkey CD1a protein; test: ELISA, 0.01 µg/ml antibody
[11] = molecular target: T2, human CD1a protein (pool B); test: ELISA, 0.316 µg/ml antibody
[12] = molecular target: chimeric CD1a pool B protein [human CD1a lipid binding domain, mouse CD1d Ig domain] (human; mouse) (UniProt P06126); test: ELISA, 1 µg/ml antibody
[13] = molecular target: Chinese variant CD1a protein (human) (UniProt P06126); test: ELISA, 1 µg/ml antibody
[14] = molecular target: T2, human CD1a protein (pool B); test: ELISA, 100 µg/ml antibody
[15] = molecular target: chimeric CD1a pool B protein [human CD1a lipid binding domain, mouse CD1d Ig domain] (human; mouse) (UniProt P06126); test: ELISA, 0.1 µg/ml antibody
[16] = molecular target: Chinese variant CD1a protein (human) (UniProt P06126); test: ELISA, 0.1 µg/ml antibody
[17] = molecular target: chimeric CD1a pool B protein [human CD1a lipid binding domain, mouse CD1d Ig domain] (human; mouse) (UniProt P06126); test: ELISA, 100 µg/ml antibody
[18] = molecular target: T2, human CD1a protein (pool B); test: ELISA, 0.1 µg/ml antibody
[19] = molecular target: T2, human CD1a protein (pool B); test: ELISA, 3.16 µg/ml antibody
[20] = molecular target: chimeric CD1a pool B protein [human CD1a lipid binding domain, mouse CD1d Ig domain] (human; mouse) (UniProt P06126); test: ELISA, 3.16 µg/ml antibody
[21] = molecular target: chimeric CD1a pool B protein [human CD1a lipid binding domain, mouse CD1d Ig domain] (human; mouse) (UniProt P06126); test: ELISA, 10 µg/ml antibody
[22] = molecular target: Chinese variant CD1a protein (human) (UniProt P06126); test: ELISA, 10 µg/ml antibody
[23] = molecular target: Chinese variant CD1a protein (human) (UniProt P06126); test: ELISA, 0.01 µg/ml antibody
[24] = molecular target: T2, human CD1a protein (pool B); test: ELISA, 0.0316 µg/ml antibody
[25] = molecular target: T3, human CD1a expressed on cells (human, UniProt P06126 17-327; P61769 21-119); test: flow cytometry of ear skin cells of CD1a transgenic mice given antibody 116 100 µg i.p. on days 0, 2, 4 (CD1a : OX116), stained with HI149 on day 5; the cloud lies on the lower edge of the gate; no percent sign printed
T3 construct: also called HEK - CD1a; C1R - CD1a

[26] = molecular target: T3, human CD1a expressed on cells; test: flow cytometry of ear skin cells of CD1a transgenic mice given isotype control (CD1a : iso), stained with HI149; gated population not named on the sheet; no percent sign printed
[27] = molecular target: T3, human CD1a expressed on cells; test: flow cytometry of ear skin cells of CD1a transgenic mice given antibody 116 100 µg i.p. on days 0, 2, 4 (CD1a : OX116), stained with SK9 on day 5; no percent sign printed
[28] = molecular target: T3, human CD1a expressed on cells; test: flow cytometry of ear skin cells of CD1a transgenic mice given isotype control (CD1a : iso), stained with SK9; gated population not named on the sheet; no percent sign printed
[29] = molecular target: T4, Human CD1a/β2m heterodimer (soluble, de-glycosylated) (human, UniProt P61769 21-119); test: SPR, OX16-scFv immobilised, CD1a-LPC (lysophosphatidylcholine) injected up to 1000 nM; 1:1 specific binding fit; row printed as Kd, unit nM from the legend paragraph 90
T4 construct: Expressed in HEK293S cells with fos-jun zippers, BirA tag and His-tag, which were cleaved off with thrombin; deglycosylated with EndoH; Carries endogenous lipids or a loaded lipid (named under assay); also called CD1a-endo; CD1a-sphingomyelin

[30] = molecular target: T4, Human CD1a/β2m heterodimer (soluble, …); test: SPR, OX16-scFv immobilised, CD1a-SM24:1 (sphingomyelin) injected up to 1000 nM; 1:1 specific binding fit; row printed as Kd, unit nM from the legend paragraph 90
[31] = molecular target: T4, Human CD1a/β2m heterodimer (soluble, …); test: SPR, OX16-scFv immobilised on streptavidin chip, CD1a-endo (endogenous lipids) injected up to 1000 nM; 1:1 specific binding fit of response against concentration; row printed as Kd, unit nM from the legend paragraph 90
[32] = molecular target: T4, Human CD1a/β2m heterodimer (soluble, …); test: SPR, OX16-scFv immobilised, CD1a-GD3 (GD3 ganglioside) injected up to 1000 nM; 1:1 specific binding fit; row printed as Kd, unit nM from the legend paragraph 90
[33] = molecular target: T2, human CD1a protein (pool B); test: Biacore, column KD1 of the heterogeneous ligand model; no unit on the sheet or in the legend, M taken from Table 10 of the same Biacore method
[34] = molecular target: T2, human CD1a protein (pool B); test: Biacore, column KD2 of the heterogeneous ligand model; no unit on the sheet or in the legend, M taken from Table 10 of the same Biacore method
[35] = molecular target: Chinese variant CD1a protein (human) (UniProt P06126); test: ELISA on coated minor CD1A variant protein; antibody concentration not given
[36] = molecular target: chimeric CD1a pool B protein [human CD1a lipid binding domain, mouse CD1d Ig domain] (human; mouse) (UniProt P06126); test: ELISA on chimeric CD1a (human alpha 1 and alpha 2 domains, murine CD1d alpha 3 domain), size exclusion pool B; antibody concentration not given
[37] = molecular target: T4, Human CD1a/β2m heterodimer (soluble, …); test: SPR, OX116-scFv immobilised on streptavidin chip, CD1a-endo (endogenous lipids) injected up to 1000 nM; 1:1 specific binding fit of response against concentration; row printed as Kd, unit nM from the legend paragraph 90
[38] = molecular target: T4, Human CD1a/β2m heterodimer (soluble, …); test: SPR, OX116-scFv immobilised, CD1a-SM24:1 (sphingomyelin) injected up to 1000 nM; 1:1 specific binding fit; row printed as Kd, unit nM from the legend paragraph 90
[39] = molecular target: T4, Human CD1a/β2m heterodimer (soluble, …); test: SPR, OX116-scFv immobilised, CD1a-LPC (lysophosphatidylcholine) injected up to 1000 nM; 1:1 specific binding fit; row printed as Kd, unit nM from the legend paragraph 90
[40] = molecular target: T4, Human CD1a/β2m heterodimer (soluble, …); test: SPR, OX116-scFv immobilised, CD1a-GD3 (GD3 ganglioside) injected up to 1000 nM; 1:1 specific binding fit; row printed as Kd, unit nM from the legend paragraph 90

chimeric CD1a pool B protein [human CD1a lipid binding domain, mouse CD1d Ig domain] (human; mouse), sequence (P06126 other isoform, or with tags, fused parts or gaps mutant limits assumed): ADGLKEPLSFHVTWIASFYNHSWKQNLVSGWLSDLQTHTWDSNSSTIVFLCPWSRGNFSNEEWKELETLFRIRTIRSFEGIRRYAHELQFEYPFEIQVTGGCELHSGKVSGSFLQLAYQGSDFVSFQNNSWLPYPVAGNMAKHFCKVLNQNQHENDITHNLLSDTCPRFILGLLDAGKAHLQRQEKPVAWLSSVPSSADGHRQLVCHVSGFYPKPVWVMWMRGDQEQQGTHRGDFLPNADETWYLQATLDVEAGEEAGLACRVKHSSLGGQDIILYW
Chinese variant CD1a protein (human), sequence (P06126 18-295, stated change not applied): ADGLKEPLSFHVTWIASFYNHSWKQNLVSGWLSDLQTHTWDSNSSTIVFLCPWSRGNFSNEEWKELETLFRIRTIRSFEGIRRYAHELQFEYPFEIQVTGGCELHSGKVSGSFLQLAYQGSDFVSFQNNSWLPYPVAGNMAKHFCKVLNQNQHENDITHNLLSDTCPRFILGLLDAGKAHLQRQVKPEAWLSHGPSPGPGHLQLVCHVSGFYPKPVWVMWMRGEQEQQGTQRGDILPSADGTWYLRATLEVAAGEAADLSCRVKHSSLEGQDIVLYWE
T2 sequence (P06126 18-295 limits assumed): as the sequence (P06126 18-295, stated change not applied) above

## control rabbit IgG antibody
[1]
  Optical Density (OD): 0.07 OD
[2]
  Optical Density (OD): 0.06 OD
[3]
  Optical Density (OD): 0.08 OD
[4]
  Optical Density (OD): 0.09 OD
[5]
  Optical Density (OD): 0.07 OD
[6]
  Optical Density (OD): 0.07 OD
[7]
  Optical Density (OD): 0.09 OD
[8]
  Optical Density (OD): 0.07 OD
[9]
  Optical Density (OD): 0.09 OD
[10]
  Optical Density (OD): 0.06 OD
[11]
  Optical Density (OD): 0.07 OD
[12]
  Optical Density (OD): 0.09 OD
[13]
  Optical Density (OD): 0.08 OD
[14]
  Optical Density (OD): 0.07 OD
[15]
  Optical Density (OD): 0.08 OD
[16]
  Optical Density (OD): 0.08 OD
[17]
  Optical Density (OD): 0.08 OD
[18]
  Optical Density (OD): 0.06 OD
[19]
  Optical Density (OD): 0.06 OD
[20]
  Optical Density (OD): 0.1 OD
[21]
  Optical Density (OD): 0.08 OD
[22]
  Optical Density (OD): 0.14 OD
[23]
  Optical Density (OD): 0.08 OD
[24]
  Optical Density (OD): 0.06 OD

## HI149 (antibody)
[25]
  CD1a+ (gate frequency): 46.6%
[26]
  CD1a+ (gate frequency): 82.2%

## SK9 (antibody)
[27]
  CD1a+ (gate frequency): 87.4%
[28]
  CD1a+ (gate frequency): 84.9%

B1: OX16 scFv (scFv)
scFv: DAEVQLVESGGGLVKPGGSLKLSCAASGFTFSNYAMSWVRQTPEKRLEWVAAINSNGGSAYYPDTVKDRFTISRDNAKNTLYLQMSSLRSEDTALYYCARRFYYDYGWFAYWGQGTLVTVSSGGGGSGGGGSGGGGSDIVLTQSPASLSASVGETVTITCRASENIDSYLAWYQQKQGKSPQLLVYAATLLADGVPSRFSGSGSGTQYSLKINSLQSEDVARYYCQHYYSSPWTFGGGTKLEIKSGLEVLFQGPGSGLNDIFEAQKIEWHEHHHHHH
notes: SPR: biotinylated on the C-terminal tag and coupled to streptavidin; Crystals: BirA and His-tag cleaved off with 3C protease; also called 16 ScFv full; single chain variable construct of OX16
[29]
  Kd: 1010 nM
[30]
  Kd: 860 nM
[31]
  Kd: 476 nM
[32]
  Kd: 1270 nM

B2: OX25 (antibody, V domains shown)
VH: QVQLQQSGPGLVAPSQSLFITCTVSGFSLTTYEINWVRQPPGKGLEWLGVIWTGGSTNYNSALISRLSISKDNSKSLVFLKMNSLQTDDTAIYYCVRTLPYYYAMDYWGQGTSVTVSS
VL: EIVLTQSPALMAASPGEKVTITCSVSSSISSSNLHWYQQKSGTSPKPWIYGTSNLASGVPVRFSGSGSGTSYSLTISSMEAEDAATYYCQQWSSYPPTFGSGTKLEIK
notes: also called antibody 25; Ab 25
[33]
  Kd: 15 nM
[34]
  Kd: 2.1 nM
[35]
  optical density (ELISA): 0.736
[36]
  optical density (ELISA): 0.11

B3: OX116 scFv (scFv)
scFv: DAQSVEESGGRLVTPGTPLTLTCTVSGFSLSNYAMSWVRQAPGKGLEWIGIIYTTGFTYYASWVKGRFTISKTSTTVDLKITSPTTEDTATYFCARGLATYVSPPTRLDLWGQGTLVTVSSGGGGSGGGGSGGGGSAQVLTQTPSPVSAAVGGTVTINCQASQSIYNSKNLAWYQQKPGQPPKLLIYSASTLASGVPSRFKGSGSGTQFTLTISDLESDDAATYYCQGEFSCSSVDCATFGGGTEVVVKSGLEVLFQGPGSGLNDIFEAQKIEWHEHHHHHH
notes: SPR: biotinylated on the C-terminal tag and coupled to streptavidin; Crystals: tags cleaved off with 3C protease; also called OX116 Ab fragment
[37]
  Kd: 483 nM
[38]
  Kd: 529 nM
[39]
  Kd: 1520 nM
[40]
  Kd: 329 nM

— patent US20250289893A1 (OXFORD UNIVERSITY INNOVATION, published 2025)
